Source: patent US20220064278A1 (Janssen / Centocor, published 2022)
Positions count from the first letter of the chain named.

B1: TNV148 (antibody, V domains shown)
VH: QVQLVESGGGVVQPGRSLRLSCAASGFIFSSYAMHWVRQAPGNGLEWVAFMSYDGSNKKYADSVKGRFTISRDNPKNTLYLQMNSLRAEDTAVYYCARDRGIAAGGNYYYYGMDVWGQGTTVTVSS
VL: EIVLTQSPATLSLSPGERATLSCRASQSVYSYLAWYQQKPGQAPRLLIYDASNRATGIPARFSGSGSGTDFTLTISSLEPEDFAVYYCQQRSNWPPFTFGPGTKVDIKR
B2: TNV15 (antibody, V domains shown)
VH: B1 VH with I28T, N43K, M51I, S52L, P75S, T78A, I102V, A103S
VL: EIVLTQSPATLSLSPGERATLSCRASQSVSSYLAWYQQKPGQAPRLLIYDASNRATGIPARFSGSGSGTDFTLTISSLEPEDFAVYYCQQRSNWPPFTFGPGTKVDIK
B3: TNV196 (antibody, V domains shown)
VH: B1 VH with I28T, N43K, M51I, Y60S, I70V, P75S, Y80F, Y94F, A103G
VL: B2 VL with S30Y

Assays:
recombinant human TNFα [1] = target: T1, recombinant human TNFα (human, UniProt P01375 77-233); assay: cell-based or functional assay
recombinant human TNFα [2] = target: T1, recombinant human TNFα; assay: inhibition of 125I-TNFα binding to plate-coated p55-sf2 by hybridoma supernatant
recombinant human TNFα [3] = target: T1, recombinant human TNFα; assay: competition: mAb in hybridoma supernatant preincubated with 5 ng/ml 125I-TNFα, mixture added to plate-coated p55-sf2, cpm bound counted; blocked ligand p55-sf2

Binder	neutralizing TNFα bioactivity (recombinant human TNFα [1])	fold better at blocking TNF binding than TNV118 and TNV14 (recombinant human TNFα [2])	IC50 (read off the curve) (recombinant human TNFα [3])
B1	4 fold (against TNV14)	~4 fold	~4 ng/mL
B2			~4 ng/mL
B3	4 fold (against TNV14)		~4 ng/mL
